Measurements taken from PMC2566858 (Nucleic Acids Research, 2008).
Like-named read-outs stand apart in the source and are kept apart here.

T1: rGyr_hel (reverse gyrase helicase-like domain) (Thermotoga maritima, UniProt O51934 59-541)
T1 sequence: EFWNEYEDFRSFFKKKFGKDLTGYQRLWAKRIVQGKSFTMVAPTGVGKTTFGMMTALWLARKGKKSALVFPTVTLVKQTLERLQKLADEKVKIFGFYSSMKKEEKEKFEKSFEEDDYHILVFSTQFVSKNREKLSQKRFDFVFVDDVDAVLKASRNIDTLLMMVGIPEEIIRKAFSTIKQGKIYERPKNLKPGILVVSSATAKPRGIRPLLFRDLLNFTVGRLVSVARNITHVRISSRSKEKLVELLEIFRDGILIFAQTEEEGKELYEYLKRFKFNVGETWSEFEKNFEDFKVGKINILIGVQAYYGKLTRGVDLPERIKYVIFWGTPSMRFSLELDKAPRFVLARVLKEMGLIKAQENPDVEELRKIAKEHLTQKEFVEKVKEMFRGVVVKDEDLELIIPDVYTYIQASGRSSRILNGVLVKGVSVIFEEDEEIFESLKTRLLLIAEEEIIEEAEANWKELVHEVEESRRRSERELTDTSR

T2: rGyr_fl Y851F (full-length reverse gyrase) (Thermotoga maritima, UniProt O51934 1-1104, Y851F)
T2 sequence: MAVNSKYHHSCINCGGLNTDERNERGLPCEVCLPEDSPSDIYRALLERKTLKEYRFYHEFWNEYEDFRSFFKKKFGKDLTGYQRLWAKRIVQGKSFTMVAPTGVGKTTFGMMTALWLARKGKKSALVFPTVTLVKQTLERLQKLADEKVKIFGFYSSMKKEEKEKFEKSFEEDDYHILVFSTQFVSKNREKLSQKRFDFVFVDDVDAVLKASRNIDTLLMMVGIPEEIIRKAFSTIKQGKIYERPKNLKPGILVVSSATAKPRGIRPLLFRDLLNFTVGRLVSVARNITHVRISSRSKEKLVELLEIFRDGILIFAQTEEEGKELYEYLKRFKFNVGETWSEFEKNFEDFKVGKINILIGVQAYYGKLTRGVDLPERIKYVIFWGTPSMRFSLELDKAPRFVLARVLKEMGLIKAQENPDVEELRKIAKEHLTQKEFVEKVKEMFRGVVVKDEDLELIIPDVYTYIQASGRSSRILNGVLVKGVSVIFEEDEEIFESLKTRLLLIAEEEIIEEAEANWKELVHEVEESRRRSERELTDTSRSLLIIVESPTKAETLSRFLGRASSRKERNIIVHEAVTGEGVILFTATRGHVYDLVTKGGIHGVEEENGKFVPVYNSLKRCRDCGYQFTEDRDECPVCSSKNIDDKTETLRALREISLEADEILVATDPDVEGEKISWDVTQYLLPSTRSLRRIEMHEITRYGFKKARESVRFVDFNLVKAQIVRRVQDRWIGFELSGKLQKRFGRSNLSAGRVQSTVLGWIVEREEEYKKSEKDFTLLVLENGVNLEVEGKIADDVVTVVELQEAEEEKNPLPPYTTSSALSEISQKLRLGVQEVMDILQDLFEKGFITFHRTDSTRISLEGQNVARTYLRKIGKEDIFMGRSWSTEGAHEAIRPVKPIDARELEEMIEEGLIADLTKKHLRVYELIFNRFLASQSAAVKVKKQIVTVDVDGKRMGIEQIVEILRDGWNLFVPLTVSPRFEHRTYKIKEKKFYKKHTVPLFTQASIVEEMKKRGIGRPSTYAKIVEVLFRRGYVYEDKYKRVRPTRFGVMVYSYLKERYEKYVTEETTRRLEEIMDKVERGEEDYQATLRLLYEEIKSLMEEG

T3: rGyr_hel K106Q (Thermotoga maritima, UniProt O51934 59-541, K106Q)
T3 sequence: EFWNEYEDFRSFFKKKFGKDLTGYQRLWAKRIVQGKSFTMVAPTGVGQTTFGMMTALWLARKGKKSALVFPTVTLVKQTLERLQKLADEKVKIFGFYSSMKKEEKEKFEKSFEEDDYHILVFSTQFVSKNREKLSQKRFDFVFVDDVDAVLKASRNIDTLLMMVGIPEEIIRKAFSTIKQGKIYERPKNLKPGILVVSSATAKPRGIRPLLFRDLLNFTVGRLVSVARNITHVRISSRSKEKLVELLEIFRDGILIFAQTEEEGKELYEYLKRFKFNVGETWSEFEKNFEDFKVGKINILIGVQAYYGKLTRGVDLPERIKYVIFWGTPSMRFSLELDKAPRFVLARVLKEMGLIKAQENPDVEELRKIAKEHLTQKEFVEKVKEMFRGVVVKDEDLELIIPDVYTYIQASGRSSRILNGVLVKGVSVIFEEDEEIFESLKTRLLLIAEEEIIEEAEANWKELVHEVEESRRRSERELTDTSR

B1: 60-base ssDNA (ssDNA)
DNA: AAGCCAAGCTTCTAGAGTCAGCCCGTGATATTCATTACTTCTTATCCTAGGATCCCCGTT
B2: 60 bp dsDNA (dsDNA)
DNA 1: AAGCCAAGCTTCTAGAGTCAGCCCGTGATATTCATTACTTCTTATCCTAGGATCCCCGTT
DNA 2: AACGGGGATCCTAGGATAAGAAGTAATGAATATCACGGGCTGACTCTAGAAGCTTGGCTT

What was measured:
Assay in all cases: fluorescence anisotropy
[1] = target: T1, rGyr_hel (reverse gyrase helicase-like …)
[2] = target: T2, rGyr_fl Y851F (full-length reverse …)
rGyr_hel K106Q [3] = target: T3, rGyr_hel K106Q
[4] = target: T1, rGyr_hel (reverse gyrase helicase-like …); remark: listed apart in the source
[5] = target: T2, rGyr_fl Y851F (full-length reverse …); remark: listed apart in the source
rGyr_hel K106Q [6] = target: T3, rGyr_hel K106Q; remark: listed apart in the source

| Binder | Kd [1] [nM] | Kd [2] [nM] | Kd (rGyr_hel K106Q [3]) [nM] | Kd [4] [nM] | Kd [5] [nM] | Kd (rGyr_hel K106Q [6]) [nM] |
| --- | --- | --- | --- | --- | --- | --- |
| B1 | 1200 ± 200 | 35 ± 5 | 180 ± 30 | 200 ± 30 | 60 ± 15 | 250 ± 30 |
| B2 | 1000 ± 100 | 490 ± 60 | 3800 ± 600 | 3900 ± 600 | 250 ± 40 | 2900 ± 600 |
